The target of test [1] is DnaJ-A1-pTyr381 ∆C peptide (human) (UniProt P31689). Kind of test: FP.
Test [2] concerns the target DnaJ-A1-pTyr381 ∆N peptide (human) (UniProt P31689). Kind of test: FP.
A further test has as its target Shc1-pTyr239. As to the kind of experiment: FP.
For another test, the target named is Shc1-pTyr317. Kind of test: FP.
Another test concerns the target VCP-pTyr805-tail7. As to the kind of experiment: FP.
The target in the next test is EGFR-pTyr954. As to the kind of experiment: FP.
Another test addresses EGFR-pTyr1086. As to the kind of experiment: FP.
The next test concerns the target mini peptide GGpYGG. Kind of test: fluorescence polarisation.
The next test has as its target MidT-pTyr324. As to the kind of experiment: FP. The conditions noted are these: natural protein.

Where two headings read alike, the source gives them in different places. Bounds are passed on as bounds.

For the substance L. anisa LeSH1b (Lani_2495), the Kd (in [1] (natural protein); in [2] (natural protein); in the test with Shc1-pTyr239 (natural protein); with Shc1-pTyr317 (natural protein); with VCP-pTyr805-tail7 (natural protein)) was above 50 µM throughout.

As to L. anisa LeSH2a (Lani_0711), the Kd is 7.98 µM in the test with EGFR-pTyr954 (natural protein), 3.05 µM with Shc1-pTyr239 (natural protein) and 2.53 µM with VCP-pTyr805-tail7 (natural protein).

Regarding L. anisa LeSH2b (Lani_WP_019234638), the Kd in test [1] (natural protein) is 16.5 µM; in [2] (natural protein), 22.6 µM; with EGFR-pTyr1086 (natural protein), above 50 µM; in the test with EGFR-pTyr954 (natural protein), above 50 µM; with Shc1-pTyr239 (natural protein), 38.1 µM; with Shc1-pTyr317 (natural protein) it was 40.6 µM. In addition, the Kd in the test with VCP-pTyr805-tail7 (natural protein) worked out at 31.2 µM.

On to L. dumoffii LUSH (natural protein), for which the Kd with mini peptide GGpYGG was 0.38 µM.

Turning to L. dumoffii LeSH1a, the dissociation constant (Kd) (in test [1] (natural protein); in test [2] (natural protein); in the test with MidT-pTyr324; with Shc1-pTyr239 (natural protein); with Shc1-pTyr317 (natural protein); in the test with VCP-pTyr805-tail7 (natural protein)) was above 50 µM in each case.

L. dumoffii LeSH2: the Kd in the test with EGFR-pTyr1086 (natural protein) amounted to 14.7 µM; with Shc1-pTyr239 (natural protein), 2.46 µM; with Shc1-pTyr317 (natural protein), 9.35 µM; in the test with VCP-pTyr805-tail7 (natural protein), 9.1 µM.

Turning to L. dumoffii LeSH2 (natural protein), in the test with mini peptide GGpYGG, the Kd came to 14.7 µM.

The substance L. longbeachae LeSH (natural protein) registered a dissociation constant Kd with mini peptide GGpYGG of 3.6 µM.

Take L. pneumophila DoSH C-SH2: the Kd in test [2] was 31.9 µM; in the test with EGFR-pTyr1086, 12.5 µM.

As for L. pneumophila LeSH2, the dissociation constant (Kd) in test [1] was 1.09 µM; with EGFR-pTyr1086, 31.4 µM; with EGFR-pTyr954 it was 44.6 µM; with Shc1-pTyr239, 3.66 µM; with Shc1-pTyr317, 8.77 µM.

On to L. waltersii LeSH5 tandem SH2, for which the Kd amounted to 28.7 µM in test [1]; 15 µM in [2]; 33.5 µM with EGFR-pTyr1086; 6.17 µM with Shc1-pTyr239; 13.8 µM with Shc1-pTyr317.

In the test with VCP-pTyr805-tail7, Src SH2 TrM (superbinder) came in with a Kd of 1.2 µM. This lies in the single-digit micromolar range.

The values above are taken from paper PMC6208348.
